Data set [1] has as its target T1, human Nectin-4 (Homo sapiens, UniProt Q96NY8).
T1 sequence (Q96NY8 32-510): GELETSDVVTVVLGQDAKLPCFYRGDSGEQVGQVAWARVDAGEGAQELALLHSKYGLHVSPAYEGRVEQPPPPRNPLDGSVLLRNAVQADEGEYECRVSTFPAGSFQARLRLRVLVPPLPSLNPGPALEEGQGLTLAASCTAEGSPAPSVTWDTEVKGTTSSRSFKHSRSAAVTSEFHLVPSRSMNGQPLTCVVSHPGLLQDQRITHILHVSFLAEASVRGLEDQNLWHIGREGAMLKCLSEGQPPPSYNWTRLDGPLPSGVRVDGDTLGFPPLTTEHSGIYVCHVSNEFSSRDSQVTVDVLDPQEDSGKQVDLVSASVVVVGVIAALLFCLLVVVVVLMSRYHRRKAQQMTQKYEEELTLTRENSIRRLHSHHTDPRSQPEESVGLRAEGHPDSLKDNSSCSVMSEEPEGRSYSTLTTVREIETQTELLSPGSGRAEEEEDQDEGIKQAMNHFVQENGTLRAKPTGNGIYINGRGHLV
Kind of data set: Surface plasmon resonance (Biacore T200) binding to human Nectin-4. Conditions: human Nectin-4, 1:1 binding model, twenty-five degrees Celsius. As to the method:
(§1) Peptide binding affinity to the target protein was measured by SPR using a Biacore T200 instrument. The target protein was covalently coupled to a Biacore chip surface using free amine-coupling chemistry (NHS/EDC) and all uncoupled sites were blocked with ethanolamine. Free peptides were flowed over the target protein surface in increasing concentrations to measure association (KA) and dissociation ([…]) to calculate the equilibrium dissociation constant (KD) using an appropriate binding model (see, e.g., Nikolas Stroth, J Biol Methods. 2016; 3 (1)).
(§2) In all figures (FIGS. 1A, 1B, 2A, and 2B), lines on graphs are labeled from top to bottom, beginning with letter “a,” and the corresponding concentration is noted to the right of the figure, next to the letter designating each line.
Surface plasmon resonance (SPR) analyses were performed using Biacore T200 (GE Healthcare). Target protein (“ligand”) was immobilized to a CM5 Series S sensor chip (Cytiva) using amine-coupling chemistry. Running buffer was 0.05% Surfactant P20 in HEPES buffered saline (HBS-P), pH 7.4 (Cytiva). Immobilization was performed at 25° C. Carboxyl groups in each flow cell were activated using a 1:1 mixture of 0.4 M 1-ethyl-3-(3-dimethylaminopropyl)-carbodiimide in water (EDC) and 0.1 M N-hydroxysuccinimide in water (NHS) for 7 minutes. The ligand was prepared in 10 mM Sodium acetate pH 5 (Cytiva). Pulsatile injections were made to target a specific immobilization level. Any remaining amine-reactive esters on the chip surface were blocked with a 7-minute injection of 1 M ethanolamine, pH 8.5. Three 10-second pulses of 50 mM Sodium hydroxide were then made to remove any unbound ligand. Reference cells were modified using amine coupling chemistry, omitting ligand injection.
Increase in signal (RU) is proportional to an increase in binding events between the analyte and ligand surface. The injection was then stopped, and dissociation was measured. The resulting sensorgram has reference surface and blank injection subtracted prior to curve fitting. Measured association (ka, 1/M^s−1) and dissociation (kd, s^−1) were fit to a 1:1 binding model to calculate an equilibrium dissociation constant, KD(M) for each analyte. Equilibrium binding constants (KD) and binding inhibition constants (Ki) estimated from surface plasmon resonance (SPR) or DELFIA® binding assays for exemplary compounds as set forth in Table 2A.
In this example, affinity for mouse Nectin-4 (FIG. 3A) and human Nectin-4 (FIG. 3B) were measured using a 1:1 binding model at twenty-five degrees Celsius. In both of FIGS. 3A and 3B, lines on graphs were labeled from top to bottom, beginning with letter a, and the corresponding concentration was noted to the right of the figure.
(Surface plasmon resonance follows binding to a sensor surface in real time, without labels.)

Data set [2] concerns the target T2, mouse Nectin-4 (Mus musculus, UniProt Q8R007).
T2 sequence (Q8R007 31-508): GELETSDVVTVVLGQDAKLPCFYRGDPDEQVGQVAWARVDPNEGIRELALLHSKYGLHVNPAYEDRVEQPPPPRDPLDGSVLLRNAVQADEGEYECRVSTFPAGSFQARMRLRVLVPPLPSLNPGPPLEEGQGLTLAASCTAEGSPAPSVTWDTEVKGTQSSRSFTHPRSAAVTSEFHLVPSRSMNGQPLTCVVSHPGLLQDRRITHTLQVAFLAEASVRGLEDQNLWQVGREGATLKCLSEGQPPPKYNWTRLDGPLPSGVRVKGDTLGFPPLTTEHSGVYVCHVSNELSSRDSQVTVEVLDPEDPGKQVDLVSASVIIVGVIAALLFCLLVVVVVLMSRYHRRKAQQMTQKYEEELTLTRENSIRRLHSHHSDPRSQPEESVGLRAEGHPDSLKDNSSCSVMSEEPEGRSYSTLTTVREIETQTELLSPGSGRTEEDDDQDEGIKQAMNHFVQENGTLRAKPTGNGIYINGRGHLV
Briefly: Surface plasmon resonance (Biacore T200) binding to mouse Nectin-4. As to conditions: 1:1 binding model, twenty-five degrees Celsius. The procedure: as §1, §2
Surface plasmon resonance (SPR) analyses were performed using Biacore T200 (GE Healthcare). Target protein (“ligand”) was immobilized to a CM5 Series S sensor chip (Cytiva) using amine-coupling chemistry. Running buffer was 0.05% Surfactant P20 in HEPES buffered saline (HBS-P), pH 7.4 (Cytiva). Immobilization was performed at 25° C. Carboxyl groups in each flow cell were activated using a 1:1 mixture of 0.4 M 1-ethyl-3-(3-dimethylaminopropyl)-carbodiimide in water (EDC) and 0.1 M N-hydroxysuccinimide in water (NHS) for 7 minutes. The ligand was prepared in 10 mM Sodium acetate pH 5 (Cytiva). Pulsatile injections were made to target a specific immobilization level. Any remaining amine-reactive esters on the chip surface were blocked with a 7-minute injection of 1 M ethanolamine, pH 8.5. […]
Increase in signal (RU) is proportional to an increase in binding events between the analyte and ligand surface. The injection was then stopped, and dissociation was measured. […] Measured association (ka, 1/M^s−1) and dissociation (kd, s^−1) were fit to a 1:1 binding model to calculate an equilibrium dissociation constant, KD(M) for each analyte. […]
In this example, affinity for mouse Nectin-4 (FIG. 3A) and human Nectin-4 (FIG. 3B) were measured using a 1:1 binding model at twenty-five degrees Celsius. […]

The nature of data set [3]: in vivo. As to conditions: female, athymic nude, mouse, tumor (HT1376 xenograft), total radioactivity. As to the method: In-111 labeling of miniproteins with MES buffer: In-111 was neutralized with 0.5 M MES buffer pH 5.5. This mixture was added to miniproteins prepared at 2 mg/mL in water with an equivalent amount of 0.5 M MES buffer pH 5.5, in a 1.5 mL Eppendorf vial and heated at 37° C. for 60 minutes. After the reaction, an HPLC sample was taken and an equivalent amount of 10 mM DTPA in 0.1 M ammonium acetate pH 5 was added and incubated for at least 15 minutes. The sample was then used for HPLC analysis.
In-111 labeling of miniproteins with Sodium Acetate buffer: In-111 was neutralized with 0.1 M sodium acetate buffer pH 5. […] After the reaction, an HPLC sample was taken and an equivalent amount of 10 mM DTPA in 0.1 M ammonium acetate pH 5 was added and incubated for at least 15 minutes. The sample was then used for HPLC analysis.
Purification of ^111In-miniproteins: Purification was done on two of the crude reaction mixtures mixed with 10 mM DTPA in 0.1 M ammonium acetate pH 5 and incubated for 15 minutes. A 3 kDa 0.5 mL Amicon filter was used for purification and the filter was spun at 15,000 RCF for 9 minutes. Saline was used as a formulation buffer.
Animals: Female athymic nude mice (6-8 weeks of age) were purchased from Charles River Laboratories and housed according to IACUC guidelines with ad libitum feeding. Biodistribution imaging experiments were performed on both null and tumor bearing athymic nude mice. Tumor xenograft models were generated by inoculating mice subcutaneously with 3×10^6 HT1376 cells, in 200 μL (50:50 PBS/Matrigel) in the right shoulder or right flank. Tumors were monitored for 14 days prior to SPECT/CT imaging dates. Mice with tumor volumes between 150 mm^3 and 250 mm^3 were selected for study inclusion and randomized to treatment arms. An excess of 60% of required imaging study mice were inoculated with tumor cells to ensure enough mice with appropriate tumor ranges were generated.
Animal grouping and Treatment: Animals were monitored for body weight bi-weekly and at the time of experimentation, grouped into groups of n=3. Animals were administered test-agents (TAs) that were prepared as described above. Animals received one of two standard injected dose activates and mass dose injections, depending at which site imaging studies were performed. • Site-1: 350 μCi of activity (^111In) at approximately […] peptide per mouse. • Site-2: 30MBq ([…]) of activity (^111In) at approximately 1 nM ([…]) of total peptide per mouse.
Animal imaging: Animals were sedated using isoflurane gas and imaged in a 3 bed hotel using a NanoScan SPECT/CT scanner. Animals were imaged at timepoints between 10 mins and 72 h post-dosing via SPECT scan, followed by CT scans. Details of the image process and analysis are described in Example 11.
Image Processing: Images were generated as SPECT/CT pair with the SPECT reported in units of activity. Namely, the values assigned to the voxels (volume elements) comprising the SPECT images were in units of μCi. SPECT images were co-registered to the CT scan for anatomical reference, resampled to 0.2 mm^3 voxels, masked to remove the CT background, and cropped to a uniform size prior to analysis.
Estimating tissue uptake: Regions of interest (ROIs) were defined using VivoQuant software. The kidneys and bladder were segmented as fixed volume phantoms and registered using the CT for anatomical reference. Two fixed volume spheres were used to create the liver ROI. Spheres were placed at appropriate anatomical locations based on CT and SPECT signal. Group and individual master spreadsheets were generated which included the volume, activity, and concentration (Activity/Volume) at each time point for each ROI generated. Additionally, plots of activity were generated using Matplotlib based python tools to highlight trends in the data.

The target of data set [4] is T3, Human Nectin-4 (human, UniProt Q96NY8 32-349, limits assumed).
T3 construct: Amine-coupled to the Biacore chip; also called target protein; ligand
T3 sequence: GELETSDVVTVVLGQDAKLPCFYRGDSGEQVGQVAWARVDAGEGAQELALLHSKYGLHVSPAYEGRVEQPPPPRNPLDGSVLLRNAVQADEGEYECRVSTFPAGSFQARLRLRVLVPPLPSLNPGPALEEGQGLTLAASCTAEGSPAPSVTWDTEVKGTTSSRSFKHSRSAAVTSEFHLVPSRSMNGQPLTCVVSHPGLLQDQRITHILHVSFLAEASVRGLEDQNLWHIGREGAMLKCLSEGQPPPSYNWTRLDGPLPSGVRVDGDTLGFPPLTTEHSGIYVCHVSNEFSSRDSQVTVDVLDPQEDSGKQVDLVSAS
Briefly: SPR (Biacore), Nectin-4 immobilised.

Bridge positions count the residues as written; N and C are the ends. Square brackets hold non-standard residues; d marks the D form. Primed or numbered codes have the meaning given here. Ends that are not written are not given here. * marks the point of attachment. DOTA = O=C(O)CN1CCN(CC(=O)O)CCN(CC(=O)*)CCN(CC(=O)O)CC1; Biotin = O=C1N[C@H]2[C@H](CS[C@H]2CCCCC(=O)*)N1; PEG4′ = polyethylene glycol (PEG4) linker; Lys(Me3) = C[N+](C)(C)CCCC[C@H](N)C(=O)O; PEG4 = NCCOCCOCCOCCOCCC(=O)O

We go through 14 molecules from patent publication US20260034253A1, “NECTIN-4 MINIPROTEIN CONJUGATES” (Aktis Oncology, Inc., priority 2022, published 2026).

A word on the Kd: it is the concentration at which binding is half-saturated. For orientation: tissue uptake means the share of the injected amount in each gram of the tissue.

Turning to “Ac-CEYDEEFFAGLKRLRGGDICYYIKKKFDKVPDLCIEEILDKLGC-OH (disulfide 1-34, 20-44) [Compound C9]”, the figures for the “kd (dissociation)” value in data set [1] and in data set [2] were 0.02271 s⁻¹ and 0.02134 s⁻¹, respectively.

In the case of “{DOTA-PEG4}-CEYDEEFFAGLKRLRGGDICYYIKKKFDKVPDLCIEEILDKLGC (disulfide 1-34, 20-44) [Compound C12]”, the “kd (dissociation)” value was determined as 0.01697 s⁻¹ in data set [1] and 0.02625 s⁻¹ in data set [2]. Further, the dissociation constant (Kd) in data set [1] (read-out: KD) is 10.5 nM.

Consider “{DOTA-PEG4}-CEYDEEFFAGLKRLRGGDICYYIKKKFDKVPDLCIEEILDKLGC-OH (disulfide 1-34, 20-44) [Compound C91]”, for which the “kd (dissociation)” value was determined as 0.02966 s⁻¹ in data set [1] and 0.02817 s⁻¹ in data set [2].

Take “{DOTA-PEG4}-CEYDEEFFTALKRLRGGDICYYIQAKFQYLPKLCIEEILDNLGCS (disulfide 1-34, 20-44) [Compound C117]”: the tissue uptake at 4 h in data set [3] came to 2.29 %ID/g.

As for “{DOTA-PEG4}-CEYDEEFFTALKRLRGGDICYYIQKAFQYLPGLCIEEILDNLGCS (disulfide 1-34, 20-44) [Compound C121]”, in data set [3], the tissue uptake at 4 h worked out at 2.03 %ID/g.

For the molecule “{DOTA-PEG4}-CEYDEEFFTALSRLRGGDICYYIQQAFQYLPGLCIEEILDNLGCS (disulfide 1-34, 20-44) [Compound C133]”, the tissue uptake at 4 h in data set [3] was determined as 1.29 %ID/g.

For the molecule “{DOTA-PEG4}-CEYDEQFFTALARLRGGDICYYIQEQFATVPGLCIEEILDQLGCS (disulfide 1-34, 20-44) [Compound C129]”, in data set [3], the tissue uptake at 4 h is 1.77 %ID/g.

“{DOTA-PEG4}-CEYDEQFFTALKALRGGDICYYIQASFNYLPDLCIEEILDNLGCS (disulfide 1-34, 20-44) [Compound C113]”: the tissue uptake at 4 h in data set [3] came to 1.65 %ID/g.

On to “{DOTA-PEG4}-CEYDEQFFTALSSLRGGDICYYIQEQFANVPGICIEEILDNLGCS (disulfide 1-34, 20-44) [Compound C137]”, for which, in data set [3], the tissue uptake at 4 h was 1.12 %ID/g.

With H-CEYDEEFFAGLKRLRGGDICYYIKKKFDKVPDLCIKEILDKLGC-OH (designed binder, disulfide 1-34, 20-44) [C3], the Kd in data set [4] is 9.68 nM.

In the case of CEYDEEFFAGLKRLRGGDICYYIKKKFDKVPDLCIEEILDKLGC-OH (designed binder, disulfide 1-34, 20-44) [C7], the affinity in data set [4], expressed as Kd, was 5.5 nM.

Turning to H-CEDDFQFFADLKRLRGGDICYYIRLKFDKVPDLCIKEILDKLGC-OH (designed binder, disulfide 1-34, 20-44) [C4], the Kd in data set [4] worked out at 14.4 nM.

The molecule {Biotin-PEG4′}-CEYDEEFFTALKRLRGGDICEYIQA[Lys(Me3)]FQYLPGLCIEEILDNLGCS-OH (designed binder, disulfide 1-34, 20-44) [C201] came in with a Kd in data set [4] of 0.68 nM.

The molecule H-CEDDGEYFAGLQRLYGGDICYYIKLKFPKVPDLCIKEILDKLGC-OH (designed binder, disulfide 1-34, 20-44) [C1] gave a Kd in data set [4] of 184 nM.
